Laboratory results from paper doi:10.1101/2023.01.09.523197.

Biological target: GlnR;RNAP holoenzyme (Mycobacterium …, UniProt O53830;P9WGZ1;P9WGY9;P9WGY7;P9WGY5;P9WGI1 1-255;1-347;1-1178;1-1316;1-110;1-528, |)
Assay: cryo-EM

B1: amtB scaffold (dsDNA)
DNA 1: CTTCGTCACGGCGGCGAAACAACGAGGGGCTTCCACCGAAACCGCGCTGCGTTATAATGGGAGCTGTCACGGATGCA
DNA 2: TGCATCCGTGAGTCGAGGGTAATAAACGCAGCGCGGTTTCGGTGGAAGCCCCTCGTTGTTTCGCCGCCGTGACGAAG
B1: binds.
